Experimental data reported in publication PMC7320145, “Substrate Channeling via a Transient Protein-Protein Complex: The case of D-Glyceraldehyde-3-Phosphate Dehydrogenase and L-Lactate Dehydrogenase” (Scientific Reports, 2020).

How the values were obtained:
[1] = system: NC(=O)C1=CN([C@@H]2O[C@H](COP(=O)(O)OP(=O)(O)OC[C@H]3O[C@@H](n4cnc5c(N)ncnc54)[C@H](O)[C@@H]3O)[C@@H](O)[C@H]2O)C=CC1; assay: purified protein; details: free NADH, 630 μM pyruvate, 50 mM Tris/HCl pH 7.4, 25 °C
[2] = system: NC(=O)C1=CN([C@@H]2O[C@H](COP(=O)(O)OP(=O)(O)OC[C@H]3O[C@@H](n4cnc5c(N)ncnc54)[C@H](O)[C@@H]3O)[C@@H](O)[C@H]2O)C=CC1; assay: purified protein; type: biochemical, Sus scrofa; details: free NADH, 630 μM pyruvate, 50 mM Tris/HCl pH 7.4, 25 °C

Sequence of phLDH (porcine heart LDH) (Sus scrofa) (chain, as listed by the source): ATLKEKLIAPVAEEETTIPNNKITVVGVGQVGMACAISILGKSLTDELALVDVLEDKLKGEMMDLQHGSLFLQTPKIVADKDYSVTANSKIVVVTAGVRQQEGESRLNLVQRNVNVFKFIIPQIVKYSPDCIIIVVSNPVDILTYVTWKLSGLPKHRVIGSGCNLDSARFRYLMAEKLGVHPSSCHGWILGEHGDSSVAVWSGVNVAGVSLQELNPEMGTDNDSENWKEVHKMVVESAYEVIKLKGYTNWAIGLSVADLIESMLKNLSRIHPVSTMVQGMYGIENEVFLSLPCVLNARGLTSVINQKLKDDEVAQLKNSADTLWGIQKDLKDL

| Substance | Km [1] | Km [2] |
| --- | --- | --- |
| rmLDH (rabbit muscle LDH) (Oryctolagus cuniculus) | 4.4 ± 0.4 µM | – |
| phLDH (porcine heart LDH) (Sus scrofa) | – | 7.8 ± 0.9 µM |
